{
  "source": "patent US20190071490A1",
  "about": "(BETH ISRAEL DEACONESS MEDICAL CENTER, published 2019)",
  "binders": {"B1": {"name": "antibody G1 Fab fragment (Fab, V domains shown)", "VH": "EVQLVESGGGLVQPGGSLRLSCAASGFTFSNYWISWVRQAPGKGLEWVAEIRSESDASATHYAEAVKGRFTISRDNAKNSLYLQMNSLRAEDTAVYYCLAYFDYGLAIQNYWGQGTLVTVSS", "VL": "EIVLTQSPATLSLSPGERATLSCKASKRVTTYVSWYQQKPGQAPRLLIYGASNRYLGIPARFSGSGSGTDFTLTISSLEPEDFAVYYCSQSYNYPYTFGQGTKLEIK"}},
  "key": {"[1]": {"target": "T1, human α-CGRP S34A (25-37) (human, not fully specified)", "T1 construct": "the entry already carries S34A", "T1 peptide": "NNFVPTNVGAKAF-NH2", "test": "Biacore, 37°C, G1 Fab titrated over N-biotinylated peptide on chip", "experimental": "(§1) All Biacore assays were conducted in HBS-EP running buffer (10 mM HEPES pH 7.4, 150 mM NaCl, 3 mM EDTA, 0.005% v/v polysorbate P20). CGRP surfaces were prepared by diluting the N-biotinylated CGRP to a concentration of less than 0.001 mg/mL into HBS-EP buffer and injecting it across the SA sensor chip using variable contact times. […] Samples were typically injected for 1 minute at 100 μL/min and dissociation times of at least 10 minutes were allowed. […] An entire titration series (typically generated in duplicate) was fit globally to a 1:1 Langmuir binding model using the BIAevaluation program. This returned a unique pair of association and dissociation kinetic rate constants (respectively, kₒₙ and koff) for each binding interaction, whose ratio gave the equilibrium dissociation constant (KD=koff/kₒₙ)."}, "[2]": {"target": "T2, human α-CGRP P29A (25-37) (human, not fully specified)", "T2 construct": "the entry already carries P29A", "T2 peptide": "NNFVATNVGSKAF-NH2", "test": "Biacore, 37°C, G1 Fab titrated over N-biotinylated peptide on chip", "experimental": "as §1"}, "[3]": {"target": "T3, human α-CGRP K35Q (19-37) (human, not fully specified)", "T3 construct": "the entry already carries K35Q", "T3 peptide": "SGGVVKNNFVPTNVGSQAF-NH2", "test": "Biacore, 37°C, G1 Fab titrated over N-biotinylated peptide on chip", "experimental": "as §1"}, "[4]": {"target": "T4, human α-CGRP G33A (25-37) (human, not fully specified)", "T4 construct": "the entry already carries G33A", "T4 peptide": "NNFVPTNVASKAF-NH2", "test": "Biacore, 37°C, G1 Fab titrated over N-biotinylated peptide on chip", "experimental": "as §1"}, "[5]": {"target": "T5, human α-CGRP fragment 25-37 (human, not fully specified)", "T5 peptide": "NNFVPTNVGSKAF-NH2", "test": "Biacore, 37°C, G1 Fab titrated over N-biotinylated peptide on chip", "experimental": "as §1"}, "[6]": {"target": "T6, human α-CGRP V32A (25-37) (human, not fully specified)", "T6 construct": "the entry already carries V32A", "T6 peptide": "NNFVPTNAGSKAF-NH2", "test": "Biacore, 37°C, G1 Fab titrated over N-biotinylated peptide on chip", "experimental": "as §1"}, "[7]": {"target": "T7, human α-CGRP K35A (19-37) (human, also: N-terminal biotin when on the chip)", "T7 construct": "the entry already carries K35A", "T7 peptide": "SGGVVKNNFVPTNVGSAAF-NH2", "test": "Biacore, 37°C, G1 Fab titrated over N-biotinylated peptide on chip", "experimental": "as §1"}, "[8]": {"target": "T8, human α-CGRP 1-37 (WT) (human, C-terminal amide; N-terminal biotin when captured on the SA chip; 125I-labelled in the radioligand assay)", "T8 construct": "also called α-human", "T8 peptide": "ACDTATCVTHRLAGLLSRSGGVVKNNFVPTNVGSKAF", "test": "Biacore, 37°C, G1 Fab titrated over N-biotinylated peptide on chip", "experimental": "as §1"}, "[9]": {"target": "T9, human α-CGRP N31A (25-37) (human, not fully specified)", "T9 construct": "the entry already carries N31A", "T9 peptide": "NNFVPTAVGSKAF-NH2", "test": "Biacore, 37°C, G1 Fab titrated over N-biotinylated peptide on chip", "experimental": "as §1"}, "[10]": {"target": "T10, human α-CGRP 25-38A (human, not fully specified)", "T10 construct": "residues 25-37 with an extra alanine added at the C-terminus (in the entry); also called 38A (25-38A)", "T10 peptide": "NNFVPTNVGSKAFA-NH2", "test": "Biacore, 37°C, G1 Fab titrated over N-biotinylated peptide on chip", "experimental": "as §1"}, "[11]": {"target": "T11, human α-CGRP V28A (25-37) (human, not fully specified)", "T11 construct": "the entry already carries V28A", "T11 peptide": "NNFAPTNVGSKAF-NH2", "test": "Biacore, 37°C, G1 Fab titrated over N-biotinylated peptide on chip", "experimental": "as §1"}, "[12]": {"target": "T12, human α-CGRP T30A (25-37) (human, not fully specified)", "T12 construct": "the entry already carries T30A", "T12 peptide": "NNFVPANVGSKAF-NH2", "test": "Biacore, 37°C, G1 Fab titrated over N-biotinylated peptide on chip", "experimental": "as §1"}, "[13]": {"target": "T13, human α-CGRP F37A (25-37) (human, not fully specified)", "T13 construct": "the entry already carries F37A", "T13 peptide": "NNFVPTNVGSKAA-NH2", "test": "Biacore, 37°C, G1 Fab titrated over N-biotinylated peptide on chip", "experimental": "as §1"}, "[14]": {"target": "T14, human α-CGRP F27A (25-37) (human, not fully specified)", "T14 construct": "the entry already carries F27A", "T14 peptide": "NNAVPTNVGSKAF-NH2", "test": "Biacore, 37°C, G1 Fab titrated over N-biotinylated peptide on chip", "experimental": "as §1"}, "[15]": {"target": "T15, human α-CGRP K35M (19-37) (human, also: N-terminal biotin when on the chip)", "T15 construct": "the entry already carries K35M", "T15 peptide": "SGGVVKNNFVPTNVGSMAF-NH2", "test": "Biacore, 37°C, G1 Fab titrated over N-biotinylated peptide on chip", "experimental": "as §1"}, "[16]": {"target": "T16, human α-CGRP fragment 19-37 (human, not fully specified)", "T16 peptide": "SGGVVKNNFVPTNVGSKAF-NH2", "test": "Biacore, 37°C, G1 Fab titrated over N-biotinylated peptide on chip", "experimental": "as §1"}, "[17]": {"target": "T17, human α-CGRP K35E (19-37) (human, also: N-terminal biotin when on the chip)", "T17 construct": "the entry already carries K35E", "T17 peptide": "SGGVVKNNFVPTNVGSEAF-NH2", "test": "Biacore, 37°C, G1 Fab titrated over N-biotinylated peptide on chip", "experimental": "as §1"}, "[18]": {"target": "T18, rat α-CGRP (1-37) (rat, C-terminal amide; N-terminal biotin when captured on the SA chip)", "T18 construct": "also called rat α (1-37); α-rat", "T18 peptide": "T8 peptide with A1S, D3N, N25D, K35E", "test": "Biacore, 37°C, Fab over CGRP on SA chip", "procedure,_shortened": "(§2)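 Fab analyte flowed over N-biotinylated CGRP captured at low density on a streptavidin chip in HBS-EP (pH 7.4), 1-min injections at 100 μL/min, at least 10 min dissociation.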"}, "[19]": {"target": "T8, human α-CGRP 1-37 (WT)", "test": "Biacore, 37°C, Fab over CGRP on SA chip", "procedure,_shortened": "as §2"}},
  "note": "Substitutions are numbered along the chain they refer to. Ends that are not written are not given here.",
  "data": [
    {"binder": "B1", "values": [
      {"measurement": "Kd", "setting": "[1]", "value": 3.04, "unit": "nM"},
      {"measurement": "Kd", "setting": "[2]", "value": 0.79, "unit": "nM"},
      {"measurement": "Kd", "setting": "[3]", "value": 1.38, "unit": "nM"},
      {"measurement": "Kd", "setting": "[4]", "value": 141, "unit": "nM"},
      {"measurement": "Kd", "setting": "[5]", "value": 0.28, "unit": "nM"},
      {"measurement": "Kd", "setting": "[6]", "value": 1.71, "unit": "nM"},
      {"measurement": "Kd", "setting": "[7]", "value": 1.33, "unit": "nM"},
      {"measurement": "Kd", "setting": "[8]", "value": 0.16, "unit": "nM"},
      {"measurement": "Kd", "setting": "[9]", "value": 0.53, "unit": "nM"},
      {"measurement": "binding result", "setting": "[10]", "value": "no binding"},
      {"measurement": "Kd", "setting": "[11]", "value": 0.28, "unit": "nM"},
      {"measurement": "Kd", "setting": "[12]", "value": 0.47, "unit": "nM"},
      {"measurement": "Kd", "setting": "[13]", "value": 95, "unit": "nM"},
      {"measurement": "Kd", "setting": "[14]", "value": 0.38, "unit": "nM"},
      {"measurement": "Kd", "setting": "[15]", "value": 0.51, "unit": "nM"},
      {"measurement": "Kd", "setting": "[16]", "value": 0.16, "unit": "nM"},
      {"measurement": "Kd", "setting": "[17]", "value": 9.73, "unit": "nM"},
      {"measurement": "Kd", "setting": "[18]", "value": 2.57, "unit": "nM"},
      {"measurement": "Kd", "setting": "[19]", "value": 0.063, "unit": "nM"}
    ]}
  ]
}
